Holding throughout (test): cell-based or functional assay
Experiment [1] deals with human GLP-1R (SNAP-GLP-1R expressed in HEK293 cells) (human) (UniProt P43220).
The target in experiment [2] is human glucagon receptor (human) (UniProt P47871).
The target of the next experiment is hGLP-1R (Homo sapiens, UniProt P43220).
For experiment [3], the target named is T1, human GIP receptor (human) (UniProt P48546).
T1 sequence (looked up): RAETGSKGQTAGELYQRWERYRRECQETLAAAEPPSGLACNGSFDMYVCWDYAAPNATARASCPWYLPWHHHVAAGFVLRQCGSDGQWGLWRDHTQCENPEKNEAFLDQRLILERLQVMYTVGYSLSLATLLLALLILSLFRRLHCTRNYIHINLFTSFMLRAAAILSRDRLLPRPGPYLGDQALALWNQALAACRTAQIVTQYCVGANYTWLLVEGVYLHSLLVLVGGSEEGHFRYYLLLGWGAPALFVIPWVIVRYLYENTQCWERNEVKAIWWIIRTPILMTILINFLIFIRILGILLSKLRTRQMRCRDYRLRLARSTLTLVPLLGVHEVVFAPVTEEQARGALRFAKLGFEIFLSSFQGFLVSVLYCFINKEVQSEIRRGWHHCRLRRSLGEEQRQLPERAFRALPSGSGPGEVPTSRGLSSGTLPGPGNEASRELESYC

human glucagon receptor (human), sequence (P47871 26-477): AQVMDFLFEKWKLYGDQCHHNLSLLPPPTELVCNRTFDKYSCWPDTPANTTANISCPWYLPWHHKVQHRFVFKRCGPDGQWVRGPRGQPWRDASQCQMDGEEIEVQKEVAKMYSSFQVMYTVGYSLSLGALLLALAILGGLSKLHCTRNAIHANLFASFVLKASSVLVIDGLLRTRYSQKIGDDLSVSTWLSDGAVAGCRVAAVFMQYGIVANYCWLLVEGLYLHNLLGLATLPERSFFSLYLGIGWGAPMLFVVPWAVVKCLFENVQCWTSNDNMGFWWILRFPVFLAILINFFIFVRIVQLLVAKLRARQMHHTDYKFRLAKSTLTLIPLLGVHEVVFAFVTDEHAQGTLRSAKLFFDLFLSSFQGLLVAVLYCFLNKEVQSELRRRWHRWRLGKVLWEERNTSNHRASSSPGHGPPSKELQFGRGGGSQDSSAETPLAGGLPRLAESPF
human GLP-1R (SNAP-GLP-1R expressed in HEK293 cells) (human), sequence (P43220 24-463): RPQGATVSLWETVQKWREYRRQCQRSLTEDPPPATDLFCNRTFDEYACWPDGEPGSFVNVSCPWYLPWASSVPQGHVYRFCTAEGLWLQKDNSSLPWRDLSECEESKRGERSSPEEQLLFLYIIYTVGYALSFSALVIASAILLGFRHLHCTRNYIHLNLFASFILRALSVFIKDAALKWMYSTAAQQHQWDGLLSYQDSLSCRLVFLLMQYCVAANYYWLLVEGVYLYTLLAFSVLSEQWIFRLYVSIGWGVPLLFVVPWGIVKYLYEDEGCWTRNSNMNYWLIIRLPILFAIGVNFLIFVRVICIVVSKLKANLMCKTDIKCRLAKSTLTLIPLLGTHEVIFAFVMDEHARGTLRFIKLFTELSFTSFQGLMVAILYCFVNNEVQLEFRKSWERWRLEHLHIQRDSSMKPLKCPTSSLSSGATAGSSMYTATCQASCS
hGLP-1R, sequence (P43220 24-463): as above

B1: Example 232 (peptide)
chain: YXQGTFTSDFSQXLDKKAQXAFIEYLIEXGESSGAPPPSGS
modifications: synthetic construct; SITE 2: note = 2-Aminoisobutyric Acid; SITE 13: note = alpha-methyl-leucine; SITE 17: note = Lysine is chemically modified through conjugation of the epsilon-amino group of the Lysine side chain with (2-[2-(2-Amino-ethoxy)-ethoxy]-acetyl)-(gamma-Glu)-CO-(CH2) 16-CO2H; SITE 20: n
In experiment [1], B1 had a GLP1R Internalization EC50 of 44.7 nM and an Internalization % TOP of 45.5%. Also, in experiment [2], the Relative cAMP EC50 came out at 2.42 nM and the cAMP Rel EC50, nM (1% HSA) is 482 nM. In the experiment with hGLP-1R, the Relative cAMP EC50 stood at 0.819 nM and the cAMP Rel EC50, nM (1% HSA) was found to be 226 nM. In experiment [3], this molecule registered a Relative cAMP EC50 of 0.102 nM and a cAMP Rel EC50, nM (1% HSA) of 24.6 nM.

B2: Example 233 (peptide)
chain: YXQGTFTSDFSQXLDKKAQXAFIEYLIEXGESSGAPPPSGE
modifications: synthetic construct; SITE 2: note = 2-Aminoisobutyric Acid; SITE 13: note = alpha-methyl-leucine; SITE 17: note = Lysine is chemically modified through conjugation of the epsilon-amino group of the Lysine side chain with (2-[2-(2-Amino-ethoxy)-ethoxy]-acetyl)-(gamma-Glu)-CO-(CH2) 16-CO2H; SITE 20: n
Regarding B2, the GLP1R Internalization EC50 in experiment [1] was 24.8 nM. In experiment [1], this molecule returned an Internalization % TOP of 41.8%. For the same molecule, the Relative cAMP EC50 was determined as 2.25 nM in experiment [2], 0.874 nM with hGLP-1R and 0.0884 nM in experiment [3]. Also, the cAMP Rel EC50, nM (1% HSA) in experiment [2] was 453 nM; in the experiment with hGLP-1R it was 223 nM; in experiment [3], 28.1 nM.

B3: Example 238 (peptide)
chain: YXQGTFTSDFSXXLDKKAQXAFIEYLLEXGPSSXAPPPSGS
modifications: synthetic construct; SITE 2: note = 2-Aminoisobutyric Acid; SITE 12: note = L-ornithine; SITE 13: note = alpha-methyl-leucine; SITE 17: note = Lysine is chemically modified through conjugation of the epsilon-amino group of the Lysine side chain with (2-[2-(2-Amino-ethoxy)-ethoxy]-acetyl)-(gamma-Glu)
Take B3: in experiment [1], the GLP1R Internalization EC50 turned out to be 32.1 nM. For the same molecule, in experiment [1], the Internalization % TOP is 38.2%. Also, the Relative cAMP EC50 amounted to 2.78 nM in experiment [2], 2.71 nM in the experiment with hGLP-1R and 0.0909 nM in experiment [3]. Moreover, the values for the cAMP Rel EC50, nM (1% HSA) (in experiment [2]; with hGLP-1R; in experiment [3]) were 334 nM, 262 nM and 8.78 nM, respectively.

B4: Example 242 (peptide)
chain: YXQGTFTSDFSXXLDKKAQXAFIEYLLEXGXSSGAPPPSGS
modifications: synthetic construct; SITE 2: note = 2-Aminoisobutyric Acid; SITE 12: note = L-ornithine; SITE 13: note = alpha-methyl-leucine; SITE 17: note = Lysine is chemically modified through conjugation of the epsilon-amino group of the Lysine side chain with (2-[2-(2-Amino-ethoxy)-ethoxy]-acetyl)-(gamma-Glu)
As for B4, in experiment [1], the GLP1R Internalization EC50 was found to be 56 nM and the Internalization % TOP is 38.2%. For the same molecule, in experiment [2], the Relative cAMP EC50 stood at 3.5 nM and the cAMP Rel EC50, nM (1% HSA) stood at 484 nM. Moreover, in the experiment with hGLP-1R, the Relative cAMP EC50 is 3.42 nM and the cAMP Rel EC50, nM (1% HSA) was 242 nM. Further, in experiment [3], the Relative cAMP EC50 worked out at 0.0916 nM and the cAMP Rel EC50, nM (1% HSA) came to 5.94 nM.

B5: Example 241 (peptide)
chain: YXQGTFTSDFSXXLDKKAQXAFIEYLLEXGHSSGAPPPSGS
modifications: synthetic construct; SITE 2: note = 2-Aminoisobutyric Acid; SITE 12: note = L-ornithine; SITE 13: note = alpha-methyl-leucine; SITE 17: note = Lysine is chemically modified through conjugation of the epsilon-amino group of the Lysine side chain with (2-[2-(2-Amino-ethoxy)-ethoxy]-acetyl)-(gamma-Glu)
B5 showed a GLP1R Internalization EC50 in experiment [1] of 64.4 nM. In experiment [1], this molecule had an Internalization % TOP of 37.6%. The Relative cAMP EC50 in experiment [2] came to 2.71 nM; in the experiment with hGLP-1R, 2.3 nM; in experiment [3], 0.0748 nM.

B6: Example 253 (peptide)
chain: YXQGTFTSDFSXXLDKKAQXAFIEYLLEAGPSSGHPPPSGS
modifications: synthetic construct; SITE 2: note = 2-Aminoisobutyric Acid; SITE 12: note = L-ornithine; SITE 13: note = alpha-methyl-leucine; SITE 17: note = Lysine is chemically modified through conjugation of the epsilon-amino group of the Lysine side chain with (2-[2-(2-Amino-ethoxy)-ethoxy]-acetyl)2-(gamma-Glu)
Consider B6, for which, in experiment [1], the GLP1R Internalization EC50 is 81.6 nM and the Internalization % TOP was 55.2%. In addition, in experiment [2], the Relative cAMP EC50 is 6.62 nM and the cAMP Rel EC50 (in the presence of 1% HSA) stood at 963 nM. In addition, in the experiment with hGLP-1R, the Relative cAMP EC50 worked out at 2.2 nM and the cAMP Rel EC50 (in the presence of 1% HSA) was found to be 355 nM. Further, in experiment [3], the Relative cAMP EC50 was found to be 0.115 nM and the cAMP Rel EC50 (in the presence of 1% HSA) worked out at 26.6 nM.

B7: Example 239 (peptide)
chain: YXQGTFTSDFSXXLDKKAQXAFIEYLLEXGPSSGXPPPSGS
modifications: synthetic construct; SITE 2: note = 2-Aminoisobutyric Acid; SITE 12: note = L-ornithine; SITE 13: note = alpha-methyl-leucine; SITE 17: note = Lysine is chemically modified through conjugation of the epsilon-amino group of the Lysine side chain with (2-[2-(2-Amino-ethoxy)-ethoxy]-acetyl)-(gamma-Glu)
Consider B7, for which the GLP1R Internalization EC50 in experiment [1] stood at 72.6 nM. The molecule also gave an Internalization % TOP in experiment [1] of 42.9%. For the same molecule, the Relative cAMP EC50 in experiment [2] was determined as 2.14 nM; with hGLP-1R, 2.9 nM; in experiment [3], 0.0503 nM. Moreover, the cAMP Rel EC50, nM (1% HSA) came out at 693 nM in experiment [2], 419 nM with hGLP-1R and 12 nM in experiment [3].

B8: Example 250 (peptide)
chain: YXQGTFTSDFSXXLDKKAQXAFIEWLLEGGPSSGAPPPTGS
modifications: synthetic construct; SITE 2: note = 2-Aminoisobutyric Acid; SITE 12: note = L-ornithine; SITE 13: note = alpha-methyl-leucine; SITE 17: note = Lysine is chemically modified through conjugation of the epsilon-amino group of the Lysine side chain with (2-[2-(2-Amino-ethoxy)-ethoxy]-acetyl)-(gamma-Glu)
Take B8: the GLP1R Internalization EC50 in experiment [1] is 97 nM. This molecule had an Internalization % TOP in experiment [1] of 45%. The Relative cAMP EC50 in experiment [2] is 3.81 nM; with hGLP-1R it was 2.08 nM; in experiment [3], 0.154 nM. Moreover, the cAMP Rel EC50 (in the presence of 1% HSA) in experiment [2] is 201 nM; in the experiment with hGLP-1R it was 194 nM; in experiment [3], 11.7 nM.

(Values after patent US20240270821A1, “GIP/GLP1/GCG TRI-RECEPTOR AGONISTS AND USES THEREOF” (priority 2023, published 2024).)
